From publication doi:10.1101/2021.06.15.448428

Columns and labels:
Assay in all cases: co-IP
[1] = molecular target: Ste6*-GFP (S. cerevisiae) (UniProt P12866)
Hmg2-GFP (S. cerevisiae) = Hmg2-GFP (S. cerevisiae) (UniProt P12684)
[2] = molecular target: Pdr5*-Myc (S. cerevisiae) (UniProt P33302)

Measured: fraction bound compared to wildtype Dfm1

UniProt P33302, sequence (P33302 whole entry): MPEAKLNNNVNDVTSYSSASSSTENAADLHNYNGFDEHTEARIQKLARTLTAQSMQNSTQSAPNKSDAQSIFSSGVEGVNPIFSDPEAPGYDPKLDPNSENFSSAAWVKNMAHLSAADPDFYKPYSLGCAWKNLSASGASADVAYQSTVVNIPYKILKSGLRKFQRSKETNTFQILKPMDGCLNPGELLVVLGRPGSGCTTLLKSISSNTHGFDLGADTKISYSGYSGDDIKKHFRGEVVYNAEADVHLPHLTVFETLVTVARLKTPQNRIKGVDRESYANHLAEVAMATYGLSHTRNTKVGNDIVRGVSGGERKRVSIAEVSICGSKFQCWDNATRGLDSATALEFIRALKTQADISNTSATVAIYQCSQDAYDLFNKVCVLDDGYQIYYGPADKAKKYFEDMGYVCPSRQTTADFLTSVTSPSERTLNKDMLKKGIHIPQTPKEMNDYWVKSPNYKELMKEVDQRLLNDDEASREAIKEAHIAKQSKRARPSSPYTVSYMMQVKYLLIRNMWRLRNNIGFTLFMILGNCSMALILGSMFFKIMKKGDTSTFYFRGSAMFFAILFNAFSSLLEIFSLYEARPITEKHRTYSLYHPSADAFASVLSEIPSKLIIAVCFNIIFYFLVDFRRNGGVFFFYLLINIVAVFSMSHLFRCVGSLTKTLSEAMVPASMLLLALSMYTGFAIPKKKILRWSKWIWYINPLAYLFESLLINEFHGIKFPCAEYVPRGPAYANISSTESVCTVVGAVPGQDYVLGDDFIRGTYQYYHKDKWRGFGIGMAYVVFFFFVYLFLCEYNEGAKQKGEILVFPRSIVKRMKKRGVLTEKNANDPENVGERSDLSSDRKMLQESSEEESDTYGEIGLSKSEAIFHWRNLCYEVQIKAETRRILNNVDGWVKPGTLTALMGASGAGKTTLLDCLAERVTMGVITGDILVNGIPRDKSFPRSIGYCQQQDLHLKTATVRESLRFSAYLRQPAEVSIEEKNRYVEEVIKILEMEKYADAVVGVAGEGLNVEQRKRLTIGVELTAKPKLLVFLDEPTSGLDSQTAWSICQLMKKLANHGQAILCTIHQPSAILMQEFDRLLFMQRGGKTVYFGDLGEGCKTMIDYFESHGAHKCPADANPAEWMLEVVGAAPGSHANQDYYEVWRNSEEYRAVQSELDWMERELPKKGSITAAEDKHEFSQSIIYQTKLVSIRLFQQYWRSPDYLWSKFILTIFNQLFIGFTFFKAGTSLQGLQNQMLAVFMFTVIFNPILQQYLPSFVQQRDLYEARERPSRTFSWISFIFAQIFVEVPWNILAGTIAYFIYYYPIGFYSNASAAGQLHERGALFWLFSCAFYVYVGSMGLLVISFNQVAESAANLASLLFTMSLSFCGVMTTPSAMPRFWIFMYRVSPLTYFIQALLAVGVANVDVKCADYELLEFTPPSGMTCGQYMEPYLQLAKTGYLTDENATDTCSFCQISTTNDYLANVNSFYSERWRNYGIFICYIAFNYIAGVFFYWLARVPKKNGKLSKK
UniProt P12866, sequence (P12866 whole entry): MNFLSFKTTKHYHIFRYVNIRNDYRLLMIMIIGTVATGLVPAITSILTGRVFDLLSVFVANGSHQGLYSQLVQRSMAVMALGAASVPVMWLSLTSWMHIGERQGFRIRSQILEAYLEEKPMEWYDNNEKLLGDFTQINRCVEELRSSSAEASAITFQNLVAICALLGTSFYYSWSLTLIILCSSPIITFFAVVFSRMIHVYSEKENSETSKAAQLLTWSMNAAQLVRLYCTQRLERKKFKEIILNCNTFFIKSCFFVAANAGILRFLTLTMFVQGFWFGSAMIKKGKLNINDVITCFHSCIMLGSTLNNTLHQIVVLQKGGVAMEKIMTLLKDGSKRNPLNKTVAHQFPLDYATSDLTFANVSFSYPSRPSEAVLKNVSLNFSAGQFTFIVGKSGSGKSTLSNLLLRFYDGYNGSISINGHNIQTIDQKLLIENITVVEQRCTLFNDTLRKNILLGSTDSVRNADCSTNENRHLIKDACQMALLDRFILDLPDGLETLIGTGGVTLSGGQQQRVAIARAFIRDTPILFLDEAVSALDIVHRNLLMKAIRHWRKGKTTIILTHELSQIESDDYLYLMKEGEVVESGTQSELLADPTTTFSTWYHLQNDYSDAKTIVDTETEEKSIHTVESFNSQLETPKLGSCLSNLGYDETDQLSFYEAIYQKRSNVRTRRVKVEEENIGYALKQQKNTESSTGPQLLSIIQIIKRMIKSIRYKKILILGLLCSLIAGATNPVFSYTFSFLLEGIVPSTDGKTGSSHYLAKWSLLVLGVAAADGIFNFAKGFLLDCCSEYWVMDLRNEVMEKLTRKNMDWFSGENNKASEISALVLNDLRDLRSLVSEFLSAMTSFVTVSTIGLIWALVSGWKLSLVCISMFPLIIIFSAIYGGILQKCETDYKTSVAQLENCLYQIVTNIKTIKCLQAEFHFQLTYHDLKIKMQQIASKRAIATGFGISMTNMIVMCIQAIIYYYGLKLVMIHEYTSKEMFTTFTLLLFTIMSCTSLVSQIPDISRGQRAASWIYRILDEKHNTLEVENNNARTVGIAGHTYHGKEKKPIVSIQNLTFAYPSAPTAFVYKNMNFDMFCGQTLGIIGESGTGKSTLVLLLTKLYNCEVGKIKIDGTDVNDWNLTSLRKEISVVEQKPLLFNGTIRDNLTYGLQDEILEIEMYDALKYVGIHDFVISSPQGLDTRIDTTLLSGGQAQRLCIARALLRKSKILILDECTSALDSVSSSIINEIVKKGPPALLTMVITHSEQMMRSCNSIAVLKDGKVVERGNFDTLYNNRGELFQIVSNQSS
UniProt P12684, sequence (P12684 whole entry): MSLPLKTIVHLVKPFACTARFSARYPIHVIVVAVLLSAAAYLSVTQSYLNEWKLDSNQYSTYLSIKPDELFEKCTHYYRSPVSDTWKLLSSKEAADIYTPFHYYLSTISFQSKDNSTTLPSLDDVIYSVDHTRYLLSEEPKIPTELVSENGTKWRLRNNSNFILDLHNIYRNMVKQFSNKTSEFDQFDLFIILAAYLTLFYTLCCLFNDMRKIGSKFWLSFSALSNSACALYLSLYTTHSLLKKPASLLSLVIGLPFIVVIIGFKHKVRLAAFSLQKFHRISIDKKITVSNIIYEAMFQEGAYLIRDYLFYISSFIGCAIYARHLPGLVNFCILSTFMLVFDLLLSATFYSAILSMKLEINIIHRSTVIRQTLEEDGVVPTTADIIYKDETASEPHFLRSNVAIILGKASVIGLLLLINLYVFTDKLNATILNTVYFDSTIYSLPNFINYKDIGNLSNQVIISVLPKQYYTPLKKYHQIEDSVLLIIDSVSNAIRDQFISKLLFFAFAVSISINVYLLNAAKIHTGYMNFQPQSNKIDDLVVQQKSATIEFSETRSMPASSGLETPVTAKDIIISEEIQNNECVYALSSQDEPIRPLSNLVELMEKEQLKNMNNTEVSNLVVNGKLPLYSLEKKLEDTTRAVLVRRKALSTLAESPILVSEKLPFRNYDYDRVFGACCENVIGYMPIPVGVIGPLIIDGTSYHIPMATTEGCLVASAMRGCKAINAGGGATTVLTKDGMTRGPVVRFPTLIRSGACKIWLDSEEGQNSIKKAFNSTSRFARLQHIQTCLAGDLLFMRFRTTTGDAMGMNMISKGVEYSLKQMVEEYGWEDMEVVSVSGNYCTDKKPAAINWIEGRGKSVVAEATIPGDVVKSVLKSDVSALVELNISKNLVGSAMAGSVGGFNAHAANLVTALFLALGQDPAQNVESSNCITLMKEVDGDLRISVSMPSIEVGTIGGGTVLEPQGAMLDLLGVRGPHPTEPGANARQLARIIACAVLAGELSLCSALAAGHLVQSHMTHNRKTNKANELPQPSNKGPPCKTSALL

Dfm1-5Ashp (from UniProt Q12743 1-341) (natural protein)
< 5%: all assays above
